Positions count from the first letter of the chain named. Numbers in names are those of the source.
B1: anti-PD-L1 Ab-con-IFN-α heterodimeric fusion molecule (FP-19), con-IFN-α (R150A), G8 linker (other)
light: DIQMTQSPSSVSASVGDRVTITCKTSQDVNTAVAWYQQKPGQAPRLLIYWASTRHTGVPDRFSGSGSGTDFTLTISSLQAEDVAVYYCQQHYNTPLTFGGGTKLEIKRTVAAPSVFIFPPSDEQLKSGTASVVCLLNNFYPREAKVQWKVDNALQSGNSQESVTEQDSKDSTYSLSSTLTLSKADYEKHKVYACEVTHQGLSSPVTKSFNRGEC
heavy 1: QMQLVQSGAEVKKTGSSVKVSCKASGYTFTSYSINWVRQAPGKGLEWVAYFYVGNGYTDYNEKFKGRVTMTRDTSTSTVYMELSSLRSEDTAVYYCARGGLPYYFDYWGQGTLVTVSSASTKGPSVFPLAPCSRSTSESTAALGCLVKDYFPEPVTVSWNSGALTSGVHTFPAVLQSSGLYSLSSVVTVPSSSLGTKTYTCNVDHKPSNTKVDKRVESKYGPPCPPCPAPEFLGGPSVFLFPPKPKDTLMISRTPEVTCVVVDVSQEDPEVQFNWYVDGVEVHNAKTKPREEQFNSTYRVVSVLTVLHQDWLNGKEYKCKVSNKGLPSSIEKTISKAKGQPREPQVCTLPPSQEEMTKNQVSLSCAVKGFYPSDIAVEWESNGQPENNYKTTPPVLDSDGSFFLVSRLTVDKSRWQEGNVFSCSVMHEALHNHYTQKSLSLSLGGGGGGGGGCDLPQTHSLGNRRALILLAQMRRISPFSCLKDRHDFGFPQEEFDGNQFQKAQAISVLHEMIQQTFNLFSTKDSSAAWDESLLEKFYTELYQQLNDLEACVIQEVGVEETPLMNVDSILAVKKYFQRITLYLTEKKYSPCAWEVVRAEIMASFSLSTNLQERLRRKE
heavy 2: QMQLVQSGAEVKKTGSSVKVSCKASGYTFTSYSINWVRQAPGKGLEWVAYFYVGNGYTDYNEKFKGRVTMTRDTSTSTVYMELSSLRSEDTAVYYCARGGLPYYFDYWGQGTLVTVSSASTKGPSVFPLAPCSRSTSESTAALGCLVKDYFPEPVTVSWNSGALTSGVHTFPAVLQSSGLYSLSSVVTVPSSSLGTKTYTCNVDHKPSNTKVDKRVESKYGPPCPPCPAPEFLGGPSVFLFPPKPKDTLMISRTPEVTCVVVDVSQEDPEVQFNWYVDGVEVHNAKTKPREEQFNSTYRVVSVLTVLHQDWLNGKEYKCKVSNKGLPSSIEKTISKAKGQPREPQVYTLPPCQEEMTKNQVSLWCLVKGFYPSDIAVEWESNGQPENNYKTTPPVLDSDGSFFLYSRLTVDKSRWQEGNVFSCSVMHEALHNHYTQKSLSLSLG
B2: anti-PD-L1 Ab-con-IFN-α heterodimeric fusion molecule (FP-20), con-IFN-α (A146D and R150A), G8 linker (other)
light: B1 light
heavy 1: B1 heavy 1 with A598D
heavy 2: B1 heavy 2

Molecular target: T1, Type I IFN receptor (IFNAR) (UniProt P17181 28-557; P48551 27-515, limits assumed)
T1 sequence (looked up) 1: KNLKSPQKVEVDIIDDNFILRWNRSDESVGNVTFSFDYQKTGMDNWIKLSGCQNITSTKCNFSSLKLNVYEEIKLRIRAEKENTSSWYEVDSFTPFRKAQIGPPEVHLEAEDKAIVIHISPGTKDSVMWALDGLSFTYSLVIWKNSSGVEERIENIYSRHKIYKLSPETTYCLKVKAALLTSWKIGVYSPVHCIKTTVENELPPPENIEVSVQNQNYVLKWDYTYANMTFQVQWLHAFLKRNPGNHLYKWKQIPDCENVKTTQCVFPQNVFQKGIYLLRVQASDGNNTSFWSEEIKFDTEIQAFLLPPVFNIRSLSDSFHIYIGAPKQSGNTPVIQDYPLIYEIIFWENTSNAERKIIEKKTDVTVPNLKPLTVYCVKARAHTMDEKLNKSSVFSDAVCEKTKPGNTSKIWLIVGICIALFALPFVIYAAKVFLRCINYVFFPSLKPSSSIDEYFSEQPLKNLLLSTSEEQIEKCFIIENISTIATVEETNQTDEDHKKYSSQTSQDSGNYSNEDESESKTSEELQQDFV
T1 sequence (looked up) 2: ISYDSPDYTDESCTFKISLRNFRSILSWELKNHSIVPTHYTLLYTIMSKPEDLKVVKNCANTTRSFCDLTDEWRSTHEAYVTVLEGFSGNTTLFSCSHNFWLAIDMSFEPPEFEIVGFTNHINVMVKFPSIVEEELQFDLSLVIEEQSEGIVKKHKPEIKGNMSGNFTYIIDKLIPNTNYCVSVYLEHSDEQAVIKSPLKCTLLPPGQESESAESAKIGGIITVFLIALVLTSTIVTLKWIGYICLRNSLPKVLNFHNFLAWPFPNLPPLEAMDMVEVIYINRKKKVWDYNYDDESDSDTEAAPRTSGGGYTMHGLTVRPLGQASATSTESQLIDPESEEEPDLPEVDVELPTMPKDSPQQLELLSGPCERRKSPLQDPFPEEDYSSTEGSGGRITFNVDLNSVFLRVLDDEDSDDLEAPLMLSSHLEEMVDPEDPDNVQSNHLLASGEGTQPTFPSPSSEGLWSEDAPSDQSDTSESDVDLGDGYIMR
Assay: cell-based or functional assay

Row | Binder | EC50 ratio1 (EC50 of FP/EC50 of IFN-α2b) on PD-L1-negative cells; IFN-α reporter assay (SEAP), PD-L1 blocked with REMD290
1 | B1 | 33.9 fold
2 | B2 | 1140 fold
